B1: Response regulator aspartate phosphatase H (Bacillus subtilis), Q59HN8 (parent)
chain: MSQAIPSSRVGVKINEWYKMIRQFSVPDAEILKAEVEQDIQQMEEDQDLLIYYSLMCFRHQLMLDYLEPGKTYGNRPTVTELLETIETPQKKLTGLLKYYSLFFRGMYEFDQKEYVEAIGYYREAEKELPFVSDDIEKAEFHFKVAEAYYHMKQTHVSMYHILQALDIYQNHPLYSIRTIQSLFVIAGNYDDFKHYDKALPHLEAALELAMDIQNDRFIAISLLNIANSYDRSGDDQMAVEHFQKAAKVSREKVPDLLPKVLFGLSWTLCKAGQTQKAFQFIEEGLDHITARSHKFYKELFLFLQAVYKETVDERKIHDLLSYFEKKNLHAYIEACARSAAAVFESSCHFEQAAAFYRKVLKAQEDILKGECLYAY
partner: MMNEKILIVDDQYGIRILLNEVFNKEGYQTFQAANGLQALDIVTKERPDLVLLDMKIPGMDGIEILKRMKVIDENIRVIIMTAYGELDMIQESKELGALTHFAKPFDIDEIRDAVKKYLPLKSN

Variants of: B1
Conditions: with sp0f_bacsu spo0F

Row | Variant | effect of a mutation on the interaction
1 | MSQAIPSSRVGVKINEWYKMIRQFSVPDAEILKAEVEQDIQQMEEDNDLLIYYSLMCFRHQLMLDYLEPGKTYGNRPTVTELLETIETPQKKLTGLLKYYSLFFRGMYEFDQKEYVEAIGYYREAEKELPFVSDDIEKAEFHFKVAEAYYHMKQTHVSMYHILQALDIYQNHPLYSIRTIQSLFVIAGNYDDFKHYDKALPHLEAALELAMDIQNDRFIAISLLNIANSYDRSGDDQMAVEHFQKAAKVSREKVPDLLPKVLFGLSWTLCKAGQTQKAFQFIEEGLDHITARSHKFYKELFLFLQAVYKETVDERKIHDLLSYFEKKNLHAYIEACARSAAAVFESSCHFEQAAAFYRKVLKAQEDILKGECLYAY [Q47N] | disrupting interaction
2 | MSQAIPSSRVGVKINEWYKMIRQFSVPDAEILKAEVEQDIQQMEEDQDLLIYYSLMCFRHQLMLDYLEPGKTYGNRPTVTELLETIETPQKKLTGLLKYYSLFFRGMYEFDQKEYVEAIGYYREAEKELPFVSADIEKAEFHFKVAEAYYHMKQTHVSMYHILQALDIYQNHPLYSIRTIQSLFVIAGNYDDFKHYDKALPHLEAALELAMDIQNDRFIAISLLNIANSYDRSGDDQMAVEHFQKAAKVSREKVPDLLPKVLFGLSWTLCKAGQTQKAFQFIEEGLDHITARSHKFYKELFLFLQAVYKETVDERKIHDLLSYFEKKNLHAYIEACARSAAAVFESSCHFEQAAAFYRKVLKAQEDILKGECLYAY [D134A] | decreasing interaction
3 | MSQAIPSSRVGVKINEWYKMIRQFSVPDAEILKAEVEQDIQQMEEDQDLLIYYSLMCARHQLMLDYLEPGKTYGNRPTVTELLETIETPQKKLTGLLKYYSLFFRGMYEFDQKEYVEAIGYYREAEKELPFVSDDIEKAEFHFKVAEAYYHMKQTHVSMYHILQALDIYQNHPLYSIRTIQSLFVIAGNYDDFKHYDKALPHLEAALELAMDIQNDRFIAISLLNIANSYDRSGDDQMAVEHFQKAAKVSREKVPDLLPKVLFGLSWTLCKAGQTQKAFQFIEEGLDHITARSHKFYKELFLFLQAVYKETVDERKIHDLLSYFEKKNLHAYIEACARSAAAVFESSCHFEQAAAFYRKVLKAQEDILKGECLYAY [F58A] | decreasing interaction
4 | MSQAIPSSRVGVKINEWYKMIRQFSVPDAEILKAEVEQDIQQMEEDQDLAIYYSLMCFRHQLMLDYLEPGKTYGNRPTVTELLETIETPQKKLTGLLKYYSLFFRGMYEFDQKEYVEAIGYYREAEKELPFVSDDIEKAEFHFKVAEAYYHMKQTHVSMYHILQALDIYQNHPLYSIRTIQSLFVIAGNYDDFKHYDKALPHLEAALELAMDIQNDRFIAISLLNIANSYDRSGDDQMAVEHFQKAAKVSREKVPDLLPKVLFGLSWTLCKAGQTQKAFQFIEEGLDHITARSHKFYKELFLFLQAVYKETVDERKIHDLLSYFEKKNLHAYIEACARSAAAVFESSCHFEQAAAFYRKVLKAQEDILKGECLYAY [L50A] | disrupting interaction

Next, values leading:

Row | effect of a mutation on the interaction | Variant
5 | disrupting interaction | MSQAIPSSRVGVKINEWYKMIRQFSVPDAEILKAEVEQDIQQMEEDQDLLIYYSLMCFRHQLMLDYLEPGKTYGNRPTVTELLETIETPQKKLTGLLKYYSLFFRGMYEFDQKEYVEAIGYYREAEKELPFVSDDIEKAEFHFKVAEAYYHMKQTHVSMYHILQALDIYQNHPLASIRTIQSLFVIAGNYDDFKHYDKALPHLEAALELAMDIQNDRFIAISLLNIANSYDRSGDDQMAVEHFQKAAKVSREKVPDLLPKVLFGLSWTLCKAGQTQKAFQFIEEGLDHITARSHKFYKELFLFLQAVYKETVDERKIHDLLSYFEKKNLHAYIEACARSAAAVFESSCHFEQAAAFYRKVLKAQEDILKGECLYAY [Y175A]
6 | disrupting interaction | MSQAIPSSRVGVKINEWYKMIRQFSVPDAEILKAEVEQDIQQMEEDQDLLIYYSLMCFRHQLMLDYLEPGKTYGNRPTVTELLETIETPQKKLTGLLKYYSLFFRGMYEFDQKEYVEAIGYYREAEKELPFVSDDIAKAEFHFKVAEAYYHMKQTHVSMYHILQALDIYQNHPLYSIRTIQSLFVIAGNYDDFKHYDKALPHLEAALELAMDIQNDRFIAISLLNIANSYDRSGDDQMAVEHFQKAAKVSREKVPDLLPKVLFGLSWTLCKAGQTQKAFQFIEEGLDHITARSHKFYKELFLFLQAVYKETVDERKIHDLLSYFEKKNLHAYIEACARSAAAVFESSCHFEQAAAFYRKVLKAQEDILKGECLYAY [E137A]

Source: IntAct's records for PubMed 21346797
